Positions count from the first letter of the chain named. Names may count otherwise.

This test deals with T1, human FcRn (soluble human FcRn complexed with β2-microglobulin) (human, UniProt P61769 21-119, limits assumed).
T1 construct: also called hFcRn
The experiment in a line: SPR, pH 7.0. (SPR reads the build-up and loss of mass on a sensor chip optically.)
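Also: antibodies captured on a Protein L sensor chip with human FcRn injected as analyte, KD calculated from fitted association and dissociation rate constants.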

T1 sequence (chain, as listed by the source limits assumed, chain 1 of 2): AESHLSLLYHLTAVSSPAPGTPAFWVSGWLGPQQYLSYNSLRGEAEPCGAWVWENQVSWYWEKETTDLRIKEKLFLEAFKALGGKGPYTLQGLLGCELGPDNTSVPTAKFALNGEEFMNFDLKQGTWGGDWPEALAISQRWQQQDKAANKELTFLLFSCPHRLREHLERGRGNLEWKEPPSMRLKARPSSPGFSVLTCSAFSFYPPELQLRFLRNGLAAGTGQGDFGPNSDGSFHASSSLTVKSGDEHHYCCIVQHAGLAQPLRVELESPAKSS
T1 sequence (P61769 21-119 limits assumed, chain 2 of 2): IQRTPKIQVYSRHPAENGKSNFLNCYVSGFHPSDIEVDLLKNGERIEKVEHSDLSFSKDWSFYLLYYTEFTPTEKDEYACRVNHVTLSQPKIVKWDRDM

B1: IgG1-F454 (antibody)
heavy: QVQLQESGPGLVKPSETLSLTCAVSGHSISHDHAWSWVRQPPGEGLEWIGFISYSGITNYNPSLQGRVTISRDNSKNTLYLQMNSLRAEDTAVYYCARSLARTTAMDYWGEGTLVTVSSASTKGPSVFPLAPSSKSTSGGTAALGCLVKDYFPEPVTVSWNSGALTSGVHTFPAVLQSSGLYSLSSVVTVPSSSLGTQTYICNVNHKPSNTKVDKKVEPKSCDKTHTCPPCPAPELLGGPSVFLFPPKPKDTLMISRTIEVTCVVVDVSHEDPEVKFNWYVDGVEVHNAKTKPREEQYNSTYRVVSVLAVLHQDWLNGKEYKCKVSNKALPAPIEKTISKAKGQPREPQVYTLPPSRDELTKNQVSLTCLVKGFYPSDIAVEWESNGQPENNYKTTPPVLDSDGSFFLYSKLTVDKSRWQQGNVFSCSVLHEALHYHYTQKSLSLSP
light: not shown
notes: EU numbering; copies: 2 + 2
The Kd is the free concentration of one partner at which half of the binding sites on the other are occupied at equilibrium, for simple one-to-one binding. A low value points to tighter binding. For B1, the affinity, expressed as Kd, was 96 nM.

B2: IgG1-F497 (antibody)
heavy: B1 heavy with I259T, L430V
light: not shown
notes: EU numbering; 'N428V' as printed, probably M428V; copies: 2 + 2
The molecule B2 returned a Kd of 3100 nM.

B3: IgG1-F507 (antibody)
heavy: B1 heavy with I259V, N288A, A309Q
light: not shown
notes: EU numbering; copies: 2 + 2
With B3, binding was characterised by a dissociation constant (Kd) of 51 nM.

B4: IgG1-F508 (antibody)
heavy: B1 heavy with I259V, A309Q, N317A
light: not shown
notes: EU numbering; copies: 2 + 2
Molecule B4 displayed a Kd of 110 nM.

B5: IgG1-F470 (antibody)
heavy: B1 heavy with T258E, I259T, A309T, V310P, N327G
light: not shown
notes: EU numbering; copies: 2 + 2
In turn, B5 had a Kd of 54 nM.

B6: IgG1-F521 (antibody)
heavy: B1 heavy with I259V, N288E, A309Q, L430Y
light: not shown
notes: EU numbering; copies: 2 + 2
Turning to B6, the Kd was found to be 11 nM.

B7: IgG1-F509 (antibody)
heavy: B1 heavy with I259V, A309Q, N386A
light: not shown
notes: EU numbering; copies: 2 + 2
B7: the Kd stood at 58 nM.

B8: IgG1-F550 (antibody)
heavy: B1 heavy with T252V, I259V, A309Q
light: not shown
notes: EU numbering; copies: 2 + 2
With B8, the Kd amounted to 59 nM.

B9: IgG1-F490 (antibody)
heavy: B1 heavy with S241K, I259V, A309T, V310P, Q313H
light: not shown
notes: EU numbering; copies: 2 + 2
B9 registered a Kd of 75 nM.

B10: IgG1-F474 (antibody)
heavy: B1 heavy with I259T, A309T, V310P, L311R, N327G
light: not shown
notes: EU numbering; copies: 2 + 2
In turn, B10 yielded a Kd of 350 nM.

B11: IgG1-F538 (antibody)
heavy: B1 heavy with T252F, I259V, A309Q
light: not shown
notes: EU numbering; copies: 2 + 2
In the case of B11, the Kd came out at 99 nM.

B12: IgG1-F518 (antibody)
heavy: B1 heavy with I259T, N288E, A309T, L430M
light: not shown
notes: EU numbering; copies: 2 + 2
Regarding B12, the Kd worked out at 420 nM.

B13: IgG1-F493 (antibody)
heavy: B1 heavy with S241K, I259P, D272F, A309P, N327G, L430Y
light: not shown
notes: EU numbering; copies: 2 + 2
As for B13, the Kd was found to be 490 nM.

B14: IgG1-F475 (antibody)
heavy: B1 heavy with T258E, I259V, A309Q
light: not shown
notes: EU numbering; copies: 2 + 2
Turning to B14, the affinity, expressed as Kd, was 43 nM.

B15: IgG1-F456 (antibody)
heavy: B1 heavy with I259V, A309Q, L430F
light: not shown
notes: EU numbering; copies: 2 + 2
The molecule B15 had a Kd of 34 nM.

B16: IgG1-F523 (antibody)
heavy: B1 heavy with I259V, V307A, A309Q, L430Y
light: not shown
notes: EU numbering; copies: 2 + 2
For B16, the Kd worked out at 26 nM.

B17: IgG1-F473 (antibody)
heavy: B1 heavy with I259T, A309T, V310P, L311P, N327G
light: not shown
notes: EU numbering; copies: 2 + 2
B17 gave a Kd of 450 nM.

B18: IgG1-F534 (antibody)
heavy: B1 heavy with I259A, N288E, A309Q, L430Y
light: not shown
notes: EU numbering; copies: 2 + 2
B18 yielded a Kd of 12 nM.

B19: IgG1-F463 (antibody)
heavy: B1 heavy with I259A, V310P
light: not shown
notes: EU numbering; copies: 2 + 2
For B19, the Kd was determined as 130 nM.

B20: IgG1-F485 (antibody)
heavy: B1 heavy with I259V, N288E, L430M
light: not shown
notes: EU numbering; copies: 2 + 2
Molecule B20 returned a Kd of 97 nM.

B21: IgG1-F483 (antibody)
heavy: B1 heavy with I259V, A309Q, Q313A, L430M
light: not shown
notes: EU numbering; copies: 2 + 2
In turn, B21 returned a Kd of 57 nM.

B22: IgG1-F469 (antibody)
heavy: B1 heavy with I259T, A309T, V310P, N327G
light: not shown
notes: EU numbering; 'N3250' read as N325G; copies: 2 + 2
Molecule B22 gave a Kd of 56 nM.

B23: IgG1-F486 (antibody)
heavy: B1 heavy with I259V, A309Q, L311R, Q313H
light: not shown
notes: EU numbering; copies: 2 + 2
Turning to B23, the Kd came out at 340 nM.

B24: IgG1-F458 (antibody)
heavy: B1 heavy with I259V, A309Q, V310P, N327G
light: not shown
notes: EU numbering; copies: 2 + 2
Molecule B24 came in with a Kd of 15 nM.

B25: IgG1-F519 (antibody)
heavy: B1 heavy with I259V, N288E, A309Q, L430M
light: not shown
notes: EU numbering; copies: 2 + 2
As for B25, the Kd worked out at 26 nM.

B26: IgG1-F484 (antibody)
heavy: B1 heavy with I259V, V307A, A309Q, L430M
light: not shown
notes: EU numbering; copies: 2 + 2
Molecule B26 returned a Kd of 62 nM.

B27: IgG1-F549 (antibody)
heavy: B1 heavy with T252S, I259V, A309Q
light: not shown
notes: EU numbering; copies: 2 + 2
B27 yielded a Kd of 54 nM.

B28: IgG1-F482 (antibody)
heavy: B1 heavy with I259V, A309Q, N327G, L430M
light: not shown
notes: EU numbering; copies: 2 + 2
B28 yielded a Kd of 70 nM.

B29: IgG1-F499 (antibody)
heavy: B1 heavy with I259A, L430V
light: not shown
notes: EU numbering; copies: 2 + 2
In turn, B29 gave a Kd of 520 nM.

B30: IgG1-F455 (antibody)
heavy: B1 heavy with I259V, A309Q, L430Y
light: not shown
notes: EU numbering; copies: 2 + 2
In turn, B30 came in with a Kd of 27 nM.

B31: IgG1-F506 (antibody)
heavy: B1 heavy with I259V, N299A, A309Q
light: not shown
notes: EU numbering; copies: 2 + 2
Take B31: the Kd amounted to 190 nM.

B32: IgG1-F471 (antibody)
heavy: B1 heavy with I259T, A309T, V310P, N327G, E384A
light: not shown
notes: EU numbering; copies: 2 + 2
The molecule B32 showed a Kd of 66 nM.

B33: IgG1-F500 (antibody)
heavy: B1 heavy with I259S, A309Q
light: not shown
notes: EU numbering; copies: 2 + 2
As for B33, the dissociation constant (Kd) turned out to be 43 nM.

B34: IgG1-F517 (antibody)
heavy: B1 heavy with I259V, N288E, A309T, L430M
light: not shown
notes: EU numbering; copies: 2 + 2
B34 came in with a Kd of 310 nM.

B35: IgG1-F498 (antibody)
heavy: B1 heavy with I259A, A309T, L430V
light: not shown
notes: as for B2
B35 displayed a Kd of 1300 nM.

B36: IgG1-F467 (antibody)
heavy: B1 heavy with T258E, I259T, A309T, L430M
light: not shown
notes: EU numbering; copies: 2 + 2
B36 displayed a Kd of 570 nM.

B37: IgG1-F510 (antibody)
heavy: B1 heavy with I259V, A309Q, N391A
light: not shown
notes: EU numbering; copies: 2 + 2
B37 showed a Kd of 53 nM.

B38: IgG1-F468 (antibody)
heavy: B1 heavy with S241K, I259T, A309T, V310P
light: not shown
notes: EU numbering; copies: 2 + 2
B38: the affinity, expressed as Kd, was 57 nM.

B39: IgG1-F481 (antibody)
heavy: B1 heavy with I259T, A309Q, L430M
light: not shown
notes: EU numbering; copies: 2 + 2
In turn, B39 registered a Kd of 56 nM.

B40: IgG1-F535 (antibody)
heavy: B1 heavy with T252A, I259V, A309Q
light: not shown
notes: EU numbering; copies: 2 + 2
For the molecule B40, binding was characterised by a dissociation constant (Kd) of 39 nM.

B41: IgG1-F477 (antibody)
heavy: B1 heavy with I259V, A309Q, P389E
light: not shown
notes: EU numbering; copies: 2 + 2
For B41, the affinity, expressed as Kd, was 43 nM.

B42: IgG1-F472 (antibody)
heavy: B1 heavy with I259T, A309T, V310P, N327G, P389E
light: not shown
notes: EU numbering; copies: 2 + 2
The molecule B42 yielded a Kd of 54 nM.

B43: IgG1-F541 (antibody)
heavy: B1 heavy with T252I, I259V, A309Q
light: not shown
notes: EU numbering; copies: 2 + 2
Turning to B43, the Kd was determined as 60 nM.

B44: IgG1-F460 (antibody)
heavy: B1 heavy with I259V, V310P, N327G
light: not shown
notes: EU numbering; copies: 2 + 2
B44 registered a Kd of 47 nM.

B45: IgG1-F466 (antibody)
heavy: B1 heavy with T258E, I259V, A309T, L430M
light: not shown
notes: EU numbering; copies: 2 + 2
In turn, B45 had a Kd of 350 nM.

B46: IgG1-F480 (antibody)
heavy: B1 heavy with I259L, A309T, V310P, L430M
light: not shown
notes: EU numbering; copies: 2 + 2
Consider B46, for which the Kd was determined as 39 nM.

B47: IgG1-F457 (antibody)
heavy: B1 heavy with S241K, I259V, A309T, V310P
light: not shown
notes: EU numbering; copies: 2 + 2
Molecule B47 registered a Kd of 40 nM.

B48: IgG1-F476 (antibody)
heavy: B1 heavy with I259V, A309Q, E384A
light: not shown
notes: EU numbering; copies: 2 + 2
Regarding B48, the affinity, expressed as Kd, was 55 nM.

B49: IgG1-F459 (antibody)
heavy: B1 heavy with I259V, A309Q, V310P, Q313A, N327G
light: not shown
notes: EU numbering; copies: 2 + 2
The molecule B49 registered a Kd of 13 nM.

B50: IgG1-F544 (antibody)
heavy: B1 heavy with T252M, I259V, A309Q
light: not shown
notes: EU numbering; copies: 2 + 2
Take B50: the affinity, expressed as Kd, was 31 nM.

B51: IgG1-F464 (antibody)
heavy: B1 heavy with I259A, A309Q, V310P
light: not shown
notes: EU numbering; copies: 2 + 2
Take B51: the affinity, expressed as Kd, was 55 nM.

B52: IgG1-F533 (antibody)
heavy: B1 heavy with I259A, N288E, A309Q, L430F
light: not shown
notes: EU numbering; copies: 2 + 2
Turning to B52, binding was characterised by a dissociation constant (Kd) of 12 nM.

B53: IgG1-F465 (antibody)
heavy: B1 heavy with I259V, N288E, A309Q, N327G
light: not shown
notes: EU numbering; copies: 2 + 2
For B53, the Kd amounted to 21 nM.

B54: IgG1-F526 (antibody)
heavy: B1 heavy with I259T, A309Q, L430Y
light: not shown
notes: EU numbering; copies: 2 + 2
As for B54, the Kd came out at 19 nM.

B55: IgG1-F488 (antibody)
heavy: B1 heavy with I259V, A309T, V310P, N327G
light: not shown
notes: EU numbering; copies: 2 + 2
In turn, B55 returned a Kd of 35 nM.

Source of the values: patent US20200199241A1 (Chugai, published 2020).
